This is an account of results in PMC12520519, “RESP2: An Uncertainty Aware Multi‐Target Multi‐Property Optimization AI Pipeline for Antibody Discovery” (Advanced Science, 2025).

The experiment addresses T1, receptor binding domain (RBD) of the SARS-CoV-2 spike protein, Delta variant (SARS-CoV-2, Delta (B.1.617.2), strain).
T1 construct: also called Delta RBD; source: bought: Acro Biosystems
The experiment can be described thus: flow cytometry on cells. As to conditions: one partner purified.

B1: Delta-6 scFv (scFv, V domains shown)
VH: EVQLLESGGGLVQPGGTLRLSCAASGFIVSSNYMSWVRQAPGKGLEWVSLVYPGGSTYYADSVKGRFTVSRDNSKNTLYLQMNSLRAEDMAVYYCARDLPSGVDAVDAFDIWGQGTMVTVSS
VL: DIRVTQSPSSLSASVGDRVSITCRASQIISGYLNWYQQKPGSAPQLLIYASSSLQSGVPPRFSGSRSGTEFTLTISSLQPEDFATYYCQQTYSIPFTFGPGTKVDIK
notes: also called WT Delta-6 scFv; starting clone
Turning to B1, the Kd stood at 1.3 nM.
